According to paper PMC5809584, “Plastic roles of phenylalanine and tyrosine residues of TLS/FUS in complex formation with the G-quadruplexes of telomeric DNA and TERRA”:

Molecular target: RGG3 of TLS/FUS (UniProt P35637 454-526)
Assay: NMR CSP; equivalent amount, 50 mM KCl; NMR: 20 mM K-phosphate pH 6.2, 50 mM KCl, 1 mM DTT, 0.1 mM DSS, 5% D2O, 298 K; FA: 20 C (nucleic acids annealed in 20 mM K-phosphate pH 6.2, 50 mM KCl); EMSA: 50 mM Tris-HCl pH 7.5, 100 mM KCl, 0.5 mM EDTA, 0.5 mM DTT, 0.2 mg/mL BSA, 1 ug/mL calf thymus DNA, 20 C
Settings: protein: recombinant; tags: GST removed with PreScission; residual GST-vector residues at N-terminus; G4, heterogeneous

RGG3 of TLS/FUS, sequence (P35637 454-526): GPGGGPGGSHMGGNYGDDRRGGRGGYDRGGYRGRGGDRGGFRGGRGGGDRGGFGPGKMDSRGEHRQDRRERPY

Q: Does UUAGGGUUAGGGUUAGGGUUAGGG (structured_RNA) [TERRA24] bind?
A: binds
